Our source for the activity values is patent US20030083469, “Allosteric control of nuclear hormone receptors” (The Salk Institute for Biological Studies, published 2003).

For this data set, the target named is GAL4 DBD-RXRalpha LBD (Saccharomyces cerevisiae / Homo sapiens, UniProt P04386;P19793 P04386:1-147,P19793:203-462). Put plainly: cell_activity; fold response to 100 nM LG69; 4 copies UASG TK-LUC, CV-1 cells. The conditions noted are these: tags: GAL4 DBD (1-147) N-terminal fusion.
Sequence of GAL4 DBD-RXRalpha LBD (P04386 1-147, chain 1 of 2): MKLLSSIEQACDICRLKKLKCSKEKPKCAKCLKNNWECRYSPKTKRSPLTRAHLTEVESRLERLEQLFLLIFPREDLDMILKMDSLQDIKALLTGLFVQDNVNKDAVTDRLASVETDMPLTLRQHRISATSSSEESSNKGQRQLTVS
Sequence of GAL4 DBD-RXRalpha LBD (P19793 203-462, chain 2 of 2): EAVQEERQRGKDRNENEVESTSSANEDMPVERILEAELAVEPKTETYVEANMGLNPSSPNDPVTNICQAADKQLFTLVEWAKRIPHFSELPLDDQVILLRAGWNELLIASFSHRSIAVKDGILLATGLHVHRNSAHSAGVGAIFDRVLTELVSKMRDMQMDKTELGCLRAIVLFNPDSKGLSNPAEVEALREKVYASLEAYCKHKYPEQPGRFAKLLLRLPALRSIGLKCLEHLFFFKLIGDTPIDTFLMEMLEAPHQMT

B1: UASG x4 (dsDNA)
DNA 1: CGACGGAGTACTGTCCTCCGAGCT
DNA 2: AGCTCGGAGGACAGTACTCCGTCG
In turn, B1 returned an activity of 69 fold.
